From publication PMC3190738

Target: His-tagged-YFP-PKI-NES
Experiment: fluorescence polarisation

Kd [nM]	Substance
200	CRM1 HEAT 9 loop variant (VLV > AAA) (from UniProt Q6P5F9 1-1071) (natural protein)
1700	CRM1-1–1062 (from UniProt Q6P5F9 1-1062) (domain or fragment)
15600	wild type mouse CRM1 (1–1071) (from UniProt Q6P5F9 1-1071) (natural protein)
25	CRM1 1–1062 + VLV > AAA (from UniProt Q6P5F9 1-1062) (domain or fragment)
